Test results taken from doi:10.1101/2024.10.29.620886.

Legend:
[1] = target: CR57 canonical diabody with a five amino acid linker 'GGGGS' between the VH and VL domains (human); assay: SEC
[2] = target: Imdevimab diabody (human); assay: SEC

| Substance | stoichiometry N [1] | stoichiometry N [2] |
| --- | --- | --- |
| CR57 canonical diabody with a five amino acid linker 'GGGGS' between the VH and VL domains | 2 | – |
| Imdevimab diabody | – | 2 |
